Test results reported in patent US9808503B2, “Allergen peptide fragments and use thereof for treatment of birch pollen allergies” (ANERGIS S.A., priority 2003, dated 2017).

Tests used:
[1] = system: bee venom (BV) hypersensitive patients; experiment: Intradermal (ID) skin tests; format: in vivo, human; conditions: for immediate allergic reaction to intradermal injection: representative patient of peptide group (FIG. 5), 1 μg/ml each OPF, 0.01 μg/ml native PLA2
Protocol: Skin testing: ID tests with BV, PLA2 and peptides were performed as described in Müller et al., Allergy 48(14):37-46, 1993. Concentrations tested ranged from 10^−3 μg/ml to 1 μg/ml (10-fold dilution series). […] The 0.1 μg/ml concentration was defined as the end-point concentration (EPC), as higher concentrations of BV and PLA2 may induce non specific toxic reactions. See Müller et al., J. Allergy Clin. Immunol. 96:395-402, 1995.

IgE = experiment: In vitro IgE binding, dot blot analysis; set-up: species or system human; conditions: 1 μg spotted; control and peptide groups; order: OPF90-134, then OPF1-60
Protocol: Immunoblotting and dot blot analysis: Anti-BV or -PLA2 immunoblots were processed as described in Kettner et al., Clin. Experiment. Allergy 29:394-401, 1999. For dot blot analysis, 1 μg of whole BV, PLA2, OPFs or human albumin was diluted ¼ in DMSO, spotted on PVDF membranes and dried for 30 min. at 37° C. After blocking in non-fat milk 5%, further steps were performed as described in Kettner et al., Clin. Experiment. Allergy 29:394-401 1999. Dot densities were analyzed by scanning densitometry using an Advanced American Biotechnology scanner, Fullerton, Calif.

Row | Substance | immediate allergic reaction to intradermal injection [1] | IgE binding to the peptide (order among the three OPFs) (IgE) | ID tests ([1]; day 0, all patients in OPF and control group)
1 | OPF1-60: PLA2 fragment amino acid sequence (60 aa), N-terminal overlapping peptide fragment of Apis mellifera PLA2 (IIYPGTLWCGHGNKSSGPNELGRFKHTDACCRTHDMCPDVMSAGESKHGLTNTASHTRLS) | absence of immediate allergic reaction | – | –
2 | OPF90-134: PLA2 fragment amino acid sequence (45 aa), C-terminal overlapping peptide fragment of Apis mellifera PLA2 (LIDTKCYKLEHPVTGCGERTEGRCLHYTVDKSKPKVYQWFDLRKY) | absence of immediate allergic reaction | higher level | –
3 | OPF47-99: PLA2 fragment amino acid sequence (53 aa), internal overlapping peptide fragment of Apis mellifera PLA2 (KHGLTNTASHTRLSCDCDDKFYDCLKNSADTISSYFVGKMYFNLIDTKCYKLE) | absence of immediate allergic reaction | undetectable | –
4 | phospholipase A2 [native PLA2, reference compound] | positive | – | positive
